In the RNAGym collection of RNA variant scans (doi:10.7554/elife.80360):

B1: Hairpin Ribozyme (parent)
chain: GUCCUCUUUCACGUGCGCGUGAAAGAGAGAAGUGAACCAGAGAAACACACGUUGUGGUAUAUUACCUGGUA

Variants of: B1
Experiment: self-cleavage, relative activity (ratio to wild type); higher = more cleavage; co-transcriptional
With GUCCUCUUUCACGUGCGCGUGAAAGAGAGAAGUGAACCAGGGAAACACACGUAGUGGUAUAUUACCUGGUA the self-cleavage was 1.1. Work on GUCCUCUUUCACGUGCGCGUGAAAGAGAGAAGUGAACCAGGGAAACACACGUCGUGGUAUAUUACCUGGUA yielded a self-cleavage of 0.819. In the case of GUCCUCUUUCACGUGCGCGUGAAAGAGAGAAGUGAACCAGUGAAACACACGUUGUGGUAUAUUAACUGGUA, the self-cleavage is reported as 0.756. GUCCUCUUUCACGUGCGCGUGAAAGAGAGAAGUGAACCAGUGAAACACACGUUGUGGUAUAUUAUCUGGUA gave a self-cleavage of 1.19. For GUCCUCUUUCACGUGCGCGUGAAAGAGAGAAGUGAACCAGGGAAACACACGUUUUGGUAUAUUACCUGGUA, the self-cleavage was 0.577. GUCCUCUUUCACGUGCGCGUGAAAGAGAGAAGUGAACCAGUGAAACACACCUUGUGGUAUAUUACCUGGUA showed a self-cleavage of 1.27. For GUCCUCUUUCACGUGCGCGUGAAAGAGAGAAGUGAACCAGGGGAACACACGUUGUGGUAUAUUACCUGGUA, the self-cleavage was 0.157. GUCCUCUUUCACGUGCGCGUGAAAGAGAGAAGUGAACCAGGGAAACACACGUUGUGGUAUAUUACCGGGUA gave a self-cleavage of 0.5. In the case of GUCCUCUUUCACGUGCGCGUGAAAGAGAGAAGUGAACCAGGGAAACACACGUUGUGGUAUAUUACCCGGUA, the self-cleavage is reported as 0.483. GUCCUCUUUCACGUGCGCGUGAAAGAGAGAAGUGAACCAGUGAAUCACACGUUGUGGUAUAUUACCUGGUA gave a self-cleavage of 0.0714. In the case of GUCCUCUUUCACGUGCGCGUGAAAGAGAGAAGUGAACCAGGGAAACACACGUUGUGGUCUAUUACCUGGUA, the self-cleavage is reported as 0.436. With GUCCUCUUUCACGUGCGCGUGAAAGAGAGAAGUGAACCAGUGAAACACACGUUGUGGUGUAUUACCUGGUA the self-cleavage was 0.255. Variant GUCCUCUUUCACGUGCGCGUGAAAGAGAGAAGUGAACCAGUGAAACACACGUUGUGGUCUAUUACCUGGUA has a self-cleavage of 0.158. With GUCCUCUUUCACGUGCGCGUGAAAGAGAGAAGUGAACCAGCGAAACACACGUUGUGGAAUAUUACCUGGUA the self-cleavage was 1.07. For GUCCUCUUUCACGUGCGCGUGAAAGAGAGAAGUGAACCAGCGAAACACACGUUCUGGUAUAUUACCUGGUA, the self-cleavage was 0.676. In the case of GUCCUCUUUCACGUGCGCGUGAAAGAGAGAAGUGAACCAGCGAAACACACGAUGUGGUAUAUUACCUGGUA, the self-cleavage is reported as 1.17. With GUCCUCUUUCACGUGCGCGUGAAAGAGAGAAGUGAACCAGCGAAACACACGUUGUAGUAUAUUACCUGGUA the self-cleavage was 0.155. GUCCUCUUUCACGUGCGCGUGAAAGAGAGAAGUGAACCAGCGAAACACACGUUGUGUUAUAUUACCUGGUA gave a self-cleavage of 0.502. GUCCUCUUUCACGUGCGCGUGAAAGAGAGAAGUGAACCAGGGAAACACGCGUUGUGGUAUAUUACCUGGUA gave a self-cleavage of 0.504. GUCCUCUUUCACGUGCGCGUGAAAGAGAGAAGUGAACCAGGGAAACACUCGUUGUGGUAUAUUACCUGGUA gave a self-cleavage of 0.105. GUCCUCUUUCACGUGCGCGUGAAAGAGAGAAGUGAACCAGCGAAACACACGUUGAGGUAUAUUACCUGGUA showed a self-cleavage of 0.405. GUCCUCUUUCACGUGCGCGUGAAAGAGAGAAGUGAACCAGGGAAACACACGUUGUGGUAUGUUACCUGGUA gave a self-cleavage of 0.179. Variant GUCCUCUUUCACGUGCGCGUGAAAGAGAGAAGUGAACCAGGGAAACACACGUUGUUGUAUAUUACCUGGUA has a self-cleavage of 0.195. Variant GUCCUCUUUCACGUGCGCGUGAAAGAGAGAAGUGAACCAGCGAAACACAUGUUGUGGUAUAUUACCUGGUA has a self-cleavage of 0.713. GUCCUCUUUCACGUGCGCGUGAAAGAGAGAAGUGAACCAGGGAAACCCACGUUGUGGUAUAUUACCUGGUA gave a self-cleavage of 0.189. For GUCCUCUUUCACGUGCGCGUGAAAGAGAGAAGUGAACCAGGGAAACUCACGUUGUGGUAUAUUACCUGGUA, the self-cleavage was 0.212. Variant GUCCUCUUUCACGUGCGCGUGAAAGAGAGAAGUGAACCAGGGAAACACACAUUGUGGUAUAUUACCUGGUA has a self-cleavage of 1.09. For GUCCUCUUUCACGUGCGCGUGAAAGAGAGAAGUGAACCAGGGAAACACACUUUGUGGUAUAUUACCUGGUA, the self-cleavage was 0.552. With GUCCUCUUUCACGUGCGCGUGAAAGAGAGAAGUGAACCAGGGAGACACACGUUGUGGUAUAUUACCUGGUA the self-cleavage was 0.249. Variant GUCCUCUUUCACGUGCGCGUGAAAGAGAGAAGUGAACCAGUUAAACACACGUUGUGGUAUAUUACCUGGUA has a self-cleavage of 0.325. GUCCUCUUUCACGUGCGCGUGAAAGAGAGAAGUGAACCAGGGAAACACACGUUGUGGUAUAUUACCUGAUA gave a self-cleavage of 0.411. For GUCCUCUUUCACGUGCGCGUGAAAGAGAGAAGUGAACCAGGGAAACACACGUUGUGGUAUAUUACCUGCUA, the self-cleavage was 0.534. For GUCCUCUUUCACGUGCGCGUGAAAGAGAGAAGUGAACCAGCGAAACACACGUUGUGGUAUAUCACCUGGUA, the self-cleavage was 0.192. GUCCUCUUUCACGUGCGCGUGAAAGAGAGAAGUGAACCAGCGAAACACACGUUGUGGUAUAUGACCUGGUA showed a self-cleavage of 0.102. GUCCUCUUUCACGUGCGCGUGAAAGAGAGAAGUGAACCAGCGAAACACACGUUGUGGUAUAUAACCUGGUA gave a self-cleavage of 0.108. Variant GUCCUCUUUCACGUGCGCGUGAAAGAGAGAAGUGAACCAGUGAAACACACGUUGUGGUAUAUUACCUGGUC has a self-cleavage of 1.58. GUCCUCUUUCACGUGCGCGUGAAAGAGAGAAGUGAACCAGUGAAACACACGUUGUGGUAUAUUACCUGGUG gave a self-cleavage of 1.14. GUCCUCUUUCACGUGCGCGUGAAAGAGAGAAGUGAACCAGGGAAACACACGUUGCGGUAUAUUACCUGGUA gave a self-cleavage of 0.23.
